The source of these data is paper PMC6072106.

What all share (conditions): EMSA: 24 mM Tris/HCl pH 7.5, 50 mM KCl, 10 mM MgCl2, 1 mM CaCl2, 0.1 mM EDTA, 5% glycerol, 0.05 ug/ul BSA, 0.05 ug/ul salmon sperm DNA, 20 ul, 20 min room …
(In EMSA bound probe runs differently from free probe, usually more slowly.)

Series [1] concerns the target T1, Fis (UniProt Q88DK4).
T1 sequence: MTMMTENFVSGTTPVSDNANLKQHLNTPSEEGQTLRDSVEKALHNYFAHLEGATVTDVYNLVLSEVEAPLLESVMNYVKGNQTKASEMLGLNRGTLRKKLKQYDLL
Kind of series: competition.

In series [2] the target is T1, Fis. Kind of series: DNase I footprinting.
The target in series [3] is T1, Fis. Kind of series: EMSA.
In series [4] the target is T1, Fis. Nature of the series: EMSA with LF2 competition.

Turning to “CGTGGGGTTATGCCGAGATAAGGCAAAAATTAGGACATTCGTTCTGTAAATATATGATTTAAAAGGTTATTCGAGAGGCCGTGGCTTGCTGGTCATCCACCGTCTGAGCTCAGC (double strand) [RF1]”, the binding result with Fis [1] is on record as “no binding”.
Consider “GCGCGTAATGCCCGAATTTCAAGGCTCTCAGCCAGTTACGAACGTTTTTTGTACTTAATCCTACGAATAAGGTTGCGAGTCGAATTTTACTTGCACCAGGTTTACCCATAAAATCAGCGCGATTGATCCGGCTGCGACATTTGGTCACTG (double strand) [Fis-nuo1-mut-Fis-nuo2]”, for which the binding result with Fis [2] is “binds more weakly”.
As to “AGGATCCAATCGCCAGATGAACTTTACAAGGCGCAGAACAGCGAAATTCGAGCGCAGCAGTTCAAATGATATTAATTATCATTACAGGGTTTGCAATTCGTTACCCGCTGCAAGAAACATAATTAACAAAACCGCGCGTAATGCCCGAATTTCAAGGCTCTCAGCCAGTTACGAACG (double strand) [nuoA promoter Fis-nuo3-Fis-nuo4 (170 bp)]”, the binding entry in the series with Fis [3] and with Fis [2] was “binds” each time.
Take “AGGATCCAATCGCCAGATGAACTTTACAAGGCGCAGAACAGCGAAATTCGAGCGCAGCAGTGGCACCGACCTTAATTATCATTACAGGGTTTGCAATTCGTTACCCGCTGCAAGAAACATAATTAACAAAACCGCGCGTAATGCCCGAATTTCAAGGCTCTCAGCCAGTTACGAACG (double strand) [Fis-nuo3-Fis-nuo4-mut]”: the binding result in the series with Fis [4] and with Fis [2] was “binds more weakly” throughout.
Consider “GCGCGTAATGCCCGAATTTCAAGGCTCTCAGCCAGTTACGAACGTTTTTTGTACTTAATCCTACGAATAAATTTGCGACAGAAATTTTACTTGCACCAGGTTTACCCATAAAATCAGCGCGATTGATCCGGCTGCGACATTTGGTCACTG (double strand) [nuoA promoter Fis-nuo1-Fis-nuo2 (150 bp)]”, for which the binding result with Fis [3] and in the series with Fis [2] was “binds” in each case.
For “GCGCGTAATGCCCGAATTTCAAGGCTCTCAGCCAGTTACGAACGTTTGTCCTACCTAATCCTACGAATAAATTTGCGACAGAAATTTTACTTGCACCAGGTTTACCCATAAAATCAGCGCGATTGATCCGGCTGCGACATTTGGTCACTG (double strand) [Fis-nuo1-Fis-nuo2-mut]”, the binding result with Fis [4] and in the series with Fis [2] was “binds more weakly” in each case.
Turning to “AGGATCCAATCGCCAGATGAACTTTACAAGGCGCAGAACAGCGAAATTCGAGCGCAGCAGTTCAAATGATATTAATTATCATTACAGGGTTTGCAATTCGTTACCCGCTGCAAGAAACATAAGTCAGCCAACCGCGCGTAATGCCCGAATTTCAAGGCTCTCAGCCAGTTACGAACG (double strand) [Fis-nuo3-mut-Fis-nuo4]”, the binding result with Fis [4] and with Fis [2] was “binds more weakly” each time.
